Results taken from PMC4686854 (2015).
Blank lines part the entries; values can stand above or below the binder they belong to.

Assays:
[1] = target: T1, mouse SAD-A KD-UBA fragment (kinase domain and UBA domain) (mouse); experiment: apparent Ki from trans-inhibition of KD-UBA kinase activity; residual activity a=0.34
T1 chain: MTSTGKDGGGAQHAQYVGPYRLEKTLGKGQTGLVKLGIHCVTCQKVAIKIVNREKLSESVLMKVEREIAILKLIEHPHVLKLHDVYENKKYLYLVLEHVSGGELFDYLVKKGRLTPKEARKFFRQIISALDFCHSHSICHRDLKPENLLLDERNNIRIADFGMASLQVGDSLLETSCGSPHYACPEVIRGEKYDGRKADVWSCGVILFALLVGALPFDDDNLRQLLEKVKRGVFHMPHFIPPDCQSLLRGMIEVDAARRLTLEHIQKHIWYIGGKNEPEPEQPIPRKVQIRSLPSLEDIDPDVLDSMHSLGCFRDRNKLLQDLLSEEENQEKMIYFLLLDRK

[2] = target: T2, mouse SAD-A KD-UBA fragment (kinase domain and UBA domain) (mouse)
T2 sequence (Q69Z98 whole entry, looked up): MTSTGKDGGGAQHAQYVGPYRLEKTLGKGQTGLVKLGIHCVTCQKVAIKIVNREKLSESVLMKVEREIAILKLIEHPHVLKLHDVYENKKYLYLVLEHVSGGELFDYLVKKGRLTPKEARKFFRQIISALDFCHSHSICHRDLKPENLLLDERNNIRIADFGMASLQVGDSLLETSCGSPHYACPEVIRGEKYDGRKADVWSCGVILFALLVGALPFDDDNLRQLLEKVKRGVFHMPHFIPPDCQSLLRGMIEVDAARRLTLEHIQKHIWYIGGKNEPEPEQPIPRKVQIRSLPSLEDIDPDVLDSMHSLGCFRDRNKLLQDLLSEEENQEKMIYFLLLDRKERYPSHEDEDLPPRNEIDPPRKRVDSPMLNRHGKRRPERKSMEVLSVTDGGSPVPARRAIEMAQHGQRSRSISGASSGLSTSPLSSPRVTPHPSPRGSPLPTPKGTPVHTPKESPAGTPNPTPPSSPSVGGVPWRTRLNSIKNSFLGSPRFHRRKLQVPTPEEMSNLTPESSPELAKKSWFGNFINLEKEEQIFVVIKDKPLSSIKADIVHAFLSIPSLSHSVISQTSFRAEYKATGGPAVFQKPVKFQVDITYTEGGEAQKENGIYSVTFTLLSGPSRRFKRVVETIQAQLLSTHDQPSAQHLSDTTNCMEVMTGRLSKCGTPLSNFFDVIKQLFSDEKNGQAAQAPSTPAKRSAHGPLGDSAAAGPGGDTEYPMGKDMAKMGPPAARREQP

[3] = target: T1, mouse SAD-A KD-UBA fragment (kinase …); experiment: trans-inhibition of KD-UBA kinase activity, non-competitive fit (a = 0.15)
[4] = target: T1, mouse SAD-A KD-UBA fragment (kinase …); experiment: apparent Ki from trans-inhibition of KD-UBA kinase activity; fragment 506-653; residual activity a=0.14
[5] = target: T1, mouse SAD-A KD-UBA fragment (kinase …); experiment: trans-inhibition of KD-UBA kinase activity, non-competitive fit (a = 0.19)
[6] = target: T1, mouse SAD-A KD-UBA fragment (kinase …); experiment: apparent Ki from trans-inhibition of KD-UBA kinase activity; residual activity a=0.19

Binder: KKSWFGNFINLE [AIS peptide of mouse SAD-A (residues 519-530)]
- Ki [1]: 24.8 µM

Binder: MSNLTPESSPELAKKSWFGNFINLE [AIS-containing peptide of mouse SAD-A (residues 506-530)]
- Ki [6]: 15.1 µM

Continued, values first:

- trans-inhibition of the kinase activity of KD-UBA (10 nM) towards Cdc25C peptide; residual activity at the plateau [2]: 15%
- Ki [3]: 7.58 µM
Binder: MSNLTPESSPELAKKSWFGNFINLE (domain or fragment) [chimeric protein: mouse SAD-A residues 506-530 fused to a C-terminal thioredoxin-tag]

- trans-inhibition of the kinase activity of KD-UBA (10 nM) towards Cdc25C peptide; residual activity at the plateau [2]: 15%
- Ki [4]: 5.82 µM
B1: mouse SAD-A C-terminal fragment containing the sequence N terminal to KA1 (506-530) (domain or fragment)
chain: MSNLTPESSPELAKKSWFGNFINLEKEEQIFVVIKDKPLSSIKADIVHAFLSIPSLSHSVISQTSFRAEYKATGGPAVFQKPVKFQVDITYTEGGEAQKENGIYSVTFTLLSGPSRRFKRVVETIQAQLLSTHDQPSAQHLSGIIPKS
modifications: No chemistry outside the sequence. Built as residues 506-653 of the 653-residue isoform: the N-terminal limit 506 comes from the printed 506-530 segment, and the C-terminal limit 653 is inferred from the protein end, as in the 519-653 and 530-653 fragments. In 4YOM entity 2, position 2 = K519, 14 = K531 and 136 = S653; the initiator Met and the LEHHHHHH tag are left out.

- Ki [5]: 5.85 µM
B2: mouse SAD-A AIS-KA1 fragment (residues 519-653) (domain or fragment)
chain: KKSWFGNFINLEKEEQIFVVIKDKPLSSIKADIVHAFLSIPSLSHSVISQTSFRAEYKATGGPAVFQKPVKFQVDITYTEGGEAQKENGIYSVTFTLLSGPSRRFKRVVETIQAQLLSTHDQPSAQHLSGIIPKS
